B1: Protein TIFY 7 (Arabidopsis thaliana (Mouse-ear cress)), Q8W4J8 (parent)
chain: MERDFLGLSDKQYLSNNVKHEVNDDAVEERGLSTKAAREWGKSKVFATSSFMPSSDFQEAKAFPGAYQWGSVSAANVFRRCQFGGAFQNATPLLLGGSVPLPTHPSLVPRVASSGSSPQLTIFYGGTISVFNDISPDKAQAIMLCAGNGLKGETGDSKPVREAERMYGKQIHNTAATSSSSATHTDNFSRCRDTPVAATNAMSMIESFNAAPRNMIPSVPQARKASLARFLEKRKERLMSAMPYKKMLLDLSTGESSGMNYSSTSPT
partner: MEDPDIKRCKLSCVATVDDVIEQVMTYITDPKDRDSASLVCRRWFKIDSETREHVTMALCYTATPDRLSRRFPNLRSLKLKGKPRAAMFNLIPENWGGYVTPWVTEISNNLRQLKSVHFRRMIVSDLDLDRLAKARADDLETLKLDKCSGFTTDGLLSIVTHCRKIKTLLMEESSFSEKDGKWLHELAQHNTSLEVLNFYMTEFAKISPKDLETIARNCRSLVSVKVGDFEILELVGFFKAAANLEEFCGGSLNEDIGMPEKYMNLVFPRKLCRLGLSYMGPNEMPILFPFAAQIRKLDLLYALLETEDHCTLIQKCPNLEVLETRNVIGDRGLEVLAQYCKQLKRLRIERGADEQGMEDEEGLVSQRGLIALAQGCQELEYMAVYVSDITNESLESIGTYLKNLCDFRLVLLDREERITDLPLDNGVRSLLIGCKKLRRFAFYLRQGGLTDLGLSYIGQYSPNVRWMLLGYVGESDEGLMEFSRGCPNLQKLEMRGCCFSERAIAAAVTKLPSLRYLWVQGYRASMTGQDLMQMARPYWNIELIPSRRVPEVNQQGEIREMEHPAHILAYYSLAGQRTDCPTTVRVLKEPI
B2: Protein TIFY 7 (Arabidopsis thaliana (Mouse-ear cress)), Q8W4J8 (parent)
chain: B1 chain

In the assay “coi1_arath COI1, O04197” the parent is B1. The settings on record: with coi1_arath COI1, O04197.
Variants of B2 are the subject of the assay “myc3_arath MYC3, Q9FIP9”. The settings on record: with myc3_arath MYC3, Q9FIP9.
Chain of myc3_arath MYC3, Q9FIP9 (Q9FIP9 whole entry): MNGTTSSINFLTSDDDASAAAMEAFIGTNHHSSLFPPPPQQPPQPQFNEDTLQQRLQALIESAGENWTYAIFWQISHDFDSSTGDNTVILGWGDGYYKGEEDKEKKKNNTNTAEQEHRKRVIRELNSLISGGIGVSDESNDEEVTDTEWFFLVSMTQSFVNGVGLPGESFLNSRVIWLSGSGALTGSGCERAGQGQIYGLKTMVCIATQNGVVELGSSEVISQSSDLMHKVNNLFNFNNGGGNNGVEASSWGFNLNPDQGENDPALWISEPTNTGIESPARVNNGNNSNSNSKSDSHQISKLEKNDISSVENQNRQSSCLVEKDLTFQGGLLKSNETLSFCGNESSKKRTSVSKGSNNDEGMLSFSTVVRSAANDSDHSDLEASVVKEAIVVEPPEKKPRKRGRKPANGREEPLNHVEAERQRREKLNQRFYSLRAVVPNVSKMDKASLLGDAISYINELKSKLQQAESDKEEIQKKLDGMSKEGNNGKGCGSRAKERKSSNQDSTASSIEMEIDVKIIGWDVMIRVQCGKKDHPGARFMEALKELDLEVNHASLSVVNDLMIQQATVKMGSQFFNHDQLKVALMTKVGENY
Variants of B2 are the subject of the assay “myc2_arath MYC2, Q39204”. The settings on record: with myc2_arath MYC2, Q39204.
Chain of myc2_arath MYC2, Q39204 (Q39204 whole entry): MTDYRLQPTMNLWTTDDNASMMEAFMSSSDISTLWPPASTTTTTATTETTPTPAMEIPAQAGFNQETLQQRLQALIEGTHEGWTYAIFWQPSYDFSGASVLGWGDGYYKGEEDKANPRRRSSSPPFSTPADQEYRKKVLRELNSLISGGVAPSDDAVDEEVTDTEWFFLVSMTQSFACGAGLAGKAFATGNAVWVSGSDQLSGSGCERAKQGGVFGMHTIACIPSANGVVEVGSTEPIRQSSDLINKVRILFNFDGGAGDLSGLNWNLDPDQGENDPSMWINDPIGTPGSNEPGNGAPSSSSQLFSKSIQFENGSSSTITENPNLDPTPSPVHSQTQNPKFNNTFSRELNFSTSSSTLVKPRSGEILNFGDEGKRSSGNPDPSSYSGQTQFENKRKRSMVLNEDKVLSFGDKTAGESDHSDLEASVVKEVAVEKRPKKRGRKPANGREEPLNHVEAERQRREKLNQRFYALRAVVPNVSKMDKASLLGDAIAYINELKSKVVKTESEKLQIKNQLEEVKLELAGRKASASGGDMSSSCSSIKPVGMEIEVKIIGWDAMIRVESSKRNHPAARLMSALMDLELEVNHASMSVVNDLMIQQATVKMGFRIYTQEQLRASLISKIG
In the assay “myc4_arath MYC4, O49687” the parent is B2. The settings on record: with myc4_arath MYC4, O49687.
Chain of myc4_arath MYC4, O49687 (O49687 whole entry): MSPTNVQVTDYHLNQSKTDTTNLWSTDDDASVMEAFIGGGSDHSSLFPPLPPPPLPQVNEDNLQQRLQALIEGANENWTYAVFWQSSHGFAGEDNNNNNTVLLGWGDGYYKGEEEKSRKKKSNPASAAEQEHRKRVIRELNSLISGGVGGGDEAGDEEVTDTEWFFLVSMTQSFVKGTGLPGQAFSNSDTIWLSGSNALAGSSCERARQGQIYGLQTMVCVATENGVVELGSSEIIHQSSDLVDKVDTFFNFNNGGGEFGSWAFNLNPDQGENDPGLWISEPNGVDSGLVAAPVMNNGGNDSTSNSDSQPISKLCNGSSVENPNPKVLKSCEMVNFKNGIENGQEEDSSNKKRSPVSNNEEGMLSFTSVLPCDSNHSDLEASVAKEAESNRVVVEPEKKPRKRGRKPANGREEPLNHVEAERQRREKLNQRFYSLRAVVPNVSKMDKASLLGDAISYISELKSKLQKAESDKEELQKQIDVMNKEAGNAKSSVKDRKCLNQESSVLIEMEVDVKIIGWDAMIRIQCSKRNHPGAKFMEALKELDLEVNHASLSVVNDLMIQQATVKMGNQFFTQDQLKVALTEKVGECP

With F230A, the “effect of a mutation on the interaction” value with coi1_arath COI1, O04197 is “disrupting interaction strength”.
S218A;V219A;P220A;Q221A: the “effect of a mutation on the interaction” value with coi1_arath COI1, O04197 was “disrupting interaction strength”.
Same read-out and setting: then R223A;K224A, with “disrupting interaction strength”; and R234A, with “disrupting interaction strength”; and L231A, with “decreasing interaction strength”.
On to L227A, for which the “effect of a mutation on the interaction” value in the assay with myc3_arath MYC3, Q9FIP9 was “disrupting interaction strength”; with myc2_arath MYC2, Q39204, “disrupting interaction strength”; in the assay with myc4_arath MYC4, O49687, “disrupting interaction strength”.
In the case of F230A, the “effect of a mutation on the interaction” value with myc3_arath MYC3, Q9FIP9 is reported as “disrupting interaction strength”; with myc2_arath MYC2, Q39204, “disrupting interaction strength”; with myc4_arath MYC4, O49687, “disrupting interaction strength”.
As for R234A, the “effect of a mutation on the interaction” value with myc3_arath MYC3, Q9FIP9 was “disrupting interaction strength”; in the assay with myc2_arath MYC2, Q39204, “disrupting interaction strength”; in the assay with myc4_arath MYC4, O49687 it was “disrupting interaction strength”.
With L231A, the “effect of a mutation on the interaction” value is given as “disrupting interaction strength” in the assay with myc3_arath MYC3, Q9FIP9; “decreasing interaction strength” with myc2_arath MYC2, Q39204; “decreasing interaction strength” with myc4_arath MYC4, O49687.
